From patent US20200109202A1 (published 2020)

What was measured:
[1] = biological target: T1, human CD16A-158V ECD fused to monomeric Fc (human, UniProt P08637 17-208); test: SPR, Biacore T200, receptor captured, 1:1 model
T1 construct: extracellular domain; also called CD16A-158V ECD-monomeric Fc-fusion antigen; CD16A-158V ECD-Fc fusion antigen; not shown: monomeric Fc (Ying et al. 2012), silent; Avi-tag in the SPR form

[2] = biological target: T1, human CD16A-158V ECD fused to monomeric …; test: ELISA, CD16 antigen coated at 0.5 µg/mL (10 nM), with 8-10 nM 3G8 IgG as competitor
[3] = biological target: T2, CD16A (FcγRIIIA) on primary human NK cells (human, UniProt P08637 17-254); test: flow cytometry, primary human NK cells, 37 C, buffer
T2 construct: whole, on cells
T2 sequence (P08637 17-254): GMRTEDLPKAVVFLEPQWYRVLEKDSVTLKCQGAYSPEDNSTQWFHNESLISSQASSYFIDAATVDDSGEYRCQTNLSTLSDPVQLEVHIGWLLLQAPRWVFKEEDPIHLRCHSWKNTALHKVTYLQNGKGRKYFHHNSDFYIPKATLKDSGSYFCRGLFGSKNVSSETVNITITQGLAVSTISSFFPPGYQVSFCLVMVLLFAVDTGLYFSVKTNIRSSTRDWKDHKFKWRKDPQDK

[4] = biological target: T1, human CD16A-158V ECD fused to monomeric …; test: ELISA, CD16 antigen coated at 0.5 µg/mL (10 nM), without competition
[5] = biological target: T1, human CD16A-158V ECD fused to monomeric …; test: ELISA, antigen coated at 1.5 µg/mL, His-tagged scFv titrated
[6] = biological target: T3, Cynomolgus CD16A ECD fused to monomeric Fc (cynomolgus, UniProt Q8SPW2 17-208, biotinylated on the Avi-tag in the SPR form); test: as above
T3 construct: also called biotinylated mono-Fc(silent)-Avi-tagged cynomolgus CD16; not shown: monomeric Fc fusion partner (Avi-tag in the SPR form)
T3 sequence (Q8SPW2 17-208): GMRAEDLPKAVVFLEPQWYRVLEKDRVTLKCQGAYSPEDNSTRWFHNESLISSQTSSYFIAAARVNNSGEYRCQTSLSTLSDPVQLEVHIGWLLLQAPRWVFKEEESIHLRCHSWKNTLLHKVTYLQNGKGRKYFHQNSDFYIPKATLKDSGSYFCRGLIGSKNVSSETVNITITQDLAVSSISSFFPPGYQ

[7] = biological target: T4, human CD16A-158F ECD fused to monomeric Fc (human, UniProt P08637 17-208, biotinylated on the Avi-tag in the SPR form); test: as above
T4 construct: extracellular domain; not shown: monomeric Fc (Ying et al. 2012), silent; Avi-tag in the SPR form
T4 sequence (P08637 17-208): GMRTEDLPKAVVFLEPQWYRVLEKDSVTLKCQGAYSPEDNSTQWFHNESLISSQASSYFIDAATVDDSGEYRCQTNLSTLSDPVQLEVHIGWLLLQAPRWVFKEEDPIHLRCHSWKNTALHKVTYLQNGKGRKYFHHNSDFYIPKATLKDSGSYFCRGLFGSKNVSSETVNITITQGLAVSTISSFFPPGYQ

[8] = biological target: T2, CD16A (FcγRIIIA) on primary human NK …; test: flow cytometry, primary human NK cells, 37 C, with 10 mg/mL polyclonal human IgG as competitor
[9] = biological target: T2, CD16A (FcγRIIIA) on primary human NK …; test: flow cytometry, DyLight650-labelled antibody on fresh human NK cells (FIG. 40A)
Experimental: Fresh prepared human NK cells were pre-incubated for 1-hours at 37 C with and without 10 mg/mL of SCIG (Hizentra), then stained with DyLight650 labeled anti-AFM26/CD16a at indicted concentrations. […] NK (FIG. 40D) and MM.1S cells (FIG. 40C) were preincubated separately in 50% human autologous serum for 2 hours prior to assay setup. NK cells were co-cultured with MM.1S tumor cell line at an approximate E:T ration of 5, and exposed to 10-fold serial diluted test articles from 0.1-100 nM for approximately 20 hours at 37 C with 5% CO₂. Antibody staining with CD138 and CD56 followed by FACS were used to monitor cytotoxicity of MM.1S target cells and NK survival. Data were analyzed with the software programs FlowJo and GraphPad Prism 6.

[10] = biological target: T5, biotinylated, recombinant human CD16A(48R-158V) fused to human IgG1 Fc portion (human, UniProt P08637 17-208, biotinylated (site not stated)); test: ELISA, coated construct, soluble CD16A(48R-158V)-Fc
T5 construct: also called CD16A soluble antigen; recombinant human CD16A soluble antigen; not shown: human IgG1 Fc portion
T5 sequence (P08637 17-208 L66R/F176V limits assumed): as the sequence (P08637 17-208) above, with L50R, F160V counted along it

T1 sequence (P08637 17-208 F176V): as the sequence (P08637 17-208) above, with F160V counted along it

B1: scFv 3G8 (scFv containing the variable domains of the CD16 pan-specific antibody 3G8) (scFv)
chain 1: QVTLKESGPGILQPSQTLSLTCSFSGFSLRTSGMGVGWIRQPSGKGLEWLAHIWWDDDKRYNPALKSRLTISKDTSSNQVFLKIASVDTADTATYYCAQINPAWFAYWGQGTLVTVS
chain 2: DIVLTQSPASLAVSLGQRATISCKASQSVDFDGDSFMNWYQQKPGQPPKLLIYTTSNLESGIPARFSASGSGTDFTLNIHPVEEEDTATYYCQQSNEDPYTFGGGTKLELK
**Q.** Which Kd [1] does the source give for B1 here?
**A.** 8.6 nM

**Q.** What about the EC50 [2] of the same binder?
**A.** 19.7 nM

**Q.** What about the Kd [3] of the same binder?
**A.** 3.8 nM

**Q.** And the EC50 [4]?
**A.** 0.9 nM

**Q.** And the EC50 [5]?
**A.** 0.33 nM

**Q.** What about the EC50 [6] of the same binder?
**A.** 0.87 nM

**Q.** And the EC50 [7]?
**A.** 0.58 nM

**Q.** And the Kd [8]?
**A.** 64.6 nM

B2: CD16A/BCMA antibody I (bispecific antibody, human IgG1, kappa)
heavy: EVQLLESGGGLVQPGGSLRLSCAASGFTFSNYDMAWVRQAPGKGLEWVSSISTRGDITSYRDSVKGRFTISRDNSKNTLYLQMNSLRAEDTAVYYCARQDYYTDYMGFAYWGQGTLVTVSSASTKGPSVFPLAPSSKSTSGGTAALGCLVKDYFPEPVTVSWNSGALTSGVHTFPAVLQSSGLYSLSSVVTVPSSSLGTQTYICNVNHKPSNTKVDKKVEPKSCDKTHTCPPCPAPEFEGGPSVFLFPPKPKDTLMISRTPEVTCVVVAVSHEDPEVKFNWYVDGVEVHNAKTKPREEQYNSTYRVVSVLTVLHQDWLNGKEYKCKVSNKALPAPIEKTISKAKGQPREPQVYTLPPSREEMTKNQVSLTCLVKGFYPSDIAVEWESNGQPENNYKTTPPVLDSDGSFFLYSKLTVDKSRWQQGNVFSCSVMHEALHNHYTQKSLSLSPGGGGGSGGGGSGGGGSGGGGSGGGGSGGGGSSYVLTQPSSVSVAPGQTATISCGGHNIGSKNVHWYQQRPGQSPVLVIYQDNKRPSGIPERFSGSNSGNTATLTISGTQAMDEADYYCQVWDNYSVLFGGGTKLTVLGGSGGSGGSGGSGGSGGSGGSQVQLVQSGAEVKKPGESLKVSCKASGYTFTSYYMHWVRQAPGQGLEWMGAIEPMYGSTSYAQKFQGRVTMTRDTSTSTVYMELSSLRSEDTAVYYCARGSAYYYDFADYWGQGTLVTVSS
light: AIQMTQSPSSLSASVGDRVTITCRASEDIYNGLAWYQQKPGKAPKLLIYGASSLQDGVPSRFSGSGSGTEFTLTISSLQPEDEATYYCAGPHKYPLTFGGGTKVEIKRTVAAPSVFIFPPSDEQLKSGTASVVCLLNNFYPREAKVQWKVDNALQSGNSQESVTEQDSKDSTYSLSSTLTLSKADYEKHKVYACEVTHQGLSSPVTKSFNRGEC
notes: also called BCMA/CD16A antibody I; anti-BCMA/CD16a
**Q.** Does B2 bind [9]?
**A.** binds

B3: scDb-Tribody_01 (other)
VL: SYVLTQPSSVSVAPGQTATISCGGHNIGSKNVHWYQQRPGQSPVLVIYQDNKRPSGIPERFSGSNSGNTATLTISGTQAMDEADYYCQVWDNYSVLFGGGTKLTVL
VH: QVQLVQSGAEVKKPGESLKVSCKASGYTFTSYYMHWVRQAPGQGLEWMGIINPSGGSTSYAQKFQGRVTMTRDTSTSTVYMELSSLRSEDTAVYYCARGSAYYYDFADYWGQGTLVTVSS
notes: Trispecific; LSIV21 scDb VL-VL-VH-VH; connector1 NO:20, no hinge, no Fc, connector2 NO:20
**Q.** B3 was tested. Which EC50 [10] did it give?
**A.** 0.65 nM
